Measurements taken from patent US5134121A, “Nerve growth factor peptides” (Regents of the University of California, priority 1991, dated 1992).
Where a SMILES comes first, the peptide text is derived from it.

Legend:
[1] = system: embryologic day 10 dorsal root ganglia neurons; test: Nonspecific toxicity: NGF-independent neurite outgrowth in response to CNTF; format: cell-based, chick; conditions: up to 2.6 μmoles/ml, FIG. 3
Procedure: Potential nonspecific toxicity of peptide C5 (KGKE) was investigated with embryologic day 10 dorsal root ganglia neurons which also extend neurites in the presence of ciliary neurotrophic factor (CNTF) The effect of peptide C5 on NGF-independent neurite outgrowth was assessed.

[2] = Resistance to proteolysis during cell culture; format: in vitro ADME; conditions: 2.0 μmole/ml in culture medium with cells and 100 pg/ml NGF, 24 hr, HPLC
Procedure: The resistance of peptide C5 to proteolytic cleavage during cell culture was assessed. Quadruplicate wells were prepared each containing 2.0 μmole/ml of peptide in culture medium, 100 pg/ml NGF and cells as described above. After 24 hr in culture, 320 ul (4 wells×80 ul) of culture medium were collected. Fresh culture medium containing 2.0 μmole/ml of peptide was also prepared. Both samples of peptide-containing medium were filtered through a Centricon membrane (Amicon, Bedford) with a molecular weight cutoff of 10,000. 250 μl of filtrate was loaded onto a C18 uBondapak analytic HPLC column and run under the same conditions described above for peptide purification. The quantity of peptides in fresh compared to post-culture medium was determined by integration of their absorbance peaks. After 24 hr in culture, more than 80-85% of the initial quantity of peptide C5 was recovered..

[3] = system: dissociated embryonic chick dorsal root ganglia neurons; test: NGF bioassay: support of neurite outgrowth/neuronal survival without NGF (agonist activity); format: cell-based; conditions: 24 hr culture
Excerpt: After synthesis, the peptides of the present invention may then be assayed to determine their activity in the NGF bioassay using dissociated embryonic chick dorsal root ganglia neurons according to published procedures, such as, for example, Riopelle et al, (1981) J Neurobiol 12:175-186 or Varon et al (1981) Dev Brain Res 1:73-87. […] If the peptide of interest is capable of inhibiting neuronal attachment, survival or neurite outgrowth in the presence of NGF, the peptide is defined as an antagonist. Similarly, if the peptide is capable of supporting neuronal attachment, survival or neurite outgrowth in the absence of NGF, it is defined as an agonist.
NGF bioassays using dissociated embryonic chick dorsal root ganglia neurons have been described (Varon et al, (1981) Dev Brain Res 1:73-87); Riopelle et al, (1981) J Neurobiol 12:175-186). Approximately 30 dorsal root ganglia were dissected from each developmental day 8 chick embryo. […] During this incubation, non-neurons more readily attach to the substratum; therefore, the resulting supernatant contained a relatively enriched neuronal population (80-90% neurons). […]
The results obtained were similar in each experiment; FIG. 1A represents the data obtained from the second experiment. […] Neurite outgrowth was assessed by phase contrast microscopy. The number of neurite-bearing cells in a fixed area of the well was counted. […]

[4] = system: ChAT activity; test: ChAT activity in brain regions after intraventricular NGF in neonatal hamsters; format: in vivo, hamster; conditions: for increase in septal ChAT activity relative to vehicle-injected animals: single 30 μg injection PD 7, sacrifice PD 9
Procedure: The birth of hamster litters was recorded as day zero. Hamsters were sacrificed at various postnatal ages and several brain regions were quickly dissected. The regions sampled included septum (basal forebrain), caudate-putamen, thalamus, hippocampus, frontolateral neocortex, and brainstem. Dissections were performed as described (Johnston et al, (1987) Neurochem Res 12:985-994). Subiculum was included with hippocampus. Caudal midbrain plus pons constituted the brainstem. For prenatal determinations,a timed-pregnancy animal was anesthetized with Nembutal (15 mg, i.p.) and individual embryos were removed and dissected. Whole forebrain was taken in place of frontolateral neocortex in prenatal animals. ChAT activity was determined in selected tissues as described (Mobley et al, (1985) Science 229:284-287).
NGF was prepared by ion-exchange chromatography and characterized as described in the first example. In experiments in which multiple injections were given, NGF (30 μg) was administered intraventricularly (Mobley et al, (1985) supra) on postnatal day (PD) 3, 5 and 7 and sacrifice was on PD 9. Vehicle-injected animals served as controls. In experiments in which a single injection was given, NGF (30 μg) was administered intraventricularly on PD 7 and animals were sacrificed on PD 9. Controls included animals treated with NGF (30 μg) denatured by reduction and carbamoylmethylation (Morris et al, (1971) Neurobiology 1:64-67), or injection vehicle alone.

[5] = system: β-PP mRNA; test: β-protein precursor mRNA levels after NGF injection in neonatal hamsters; format: in vivo, hamster
[6] = system: PrP mRNA; conditions: hamster, in vivo
[7] = system: PrP; conditions: hamster, in vivo

NCCCC[C@H](NC(=O)CNC(=O)[C@@H](N)CCCCN)C(=O)N[C@@H](CCC(=O)O)C(N)=O [C5, KGKE-NH2] (H-KGKE-NH2)
effect on number of neurons bearing neurites in response to CNTF [1]: no detectable effect | initial quantity of peptide recovered after culture [2]: 80-85%

B1: NGF: purified from male mouse submaxillary gland; β-NGF is a dimer of two identical 118 amino acid chains (protein, UniProt P01139 122-241, looked up)
Beta-nerve growth factor: SSTHPVFHMGEFSVCDSVSVWVGDKTTATDIKGKEVTVLAEVNINNSVFRQYFFETKCRASNPVESGCRGIDSKHWNSYCTTTHTFVKALTTDEKQAAWRFIRIDTACVCVLSRKATRRG
modifications: beta-NGF
notes: purified from male mouse submaxillary gland; β-NGF is a dimer of two identical 118 amino acid chains
concentration giving maximum neurite outgrowth [3]: approximately 800 pg/ml | increase in septal ChAT activity ([4]; 30 μg intraventricularly PD 3, 5, 7, sacrifice PD 9, FIG. 5A): increased almost two-fold | increase in septal ChAT activity relative to vehicle-injected animals [4]: 100% | septal ChAT activity (mean±SEM) ([4]; single 30 μg injection PD 7, sacrifice PD 9, n=4): 44.0±5.0 nmol acetylcholine (ACh) formed/hr/mg protein | ChAT activity in caudate-putamen ([4]; single injection, n=3): 92.4±6.3 nmol acetylcholine (ACh) forme | increase in ChAT activity in caudate-putamen ([4]; single injection, neonatal hamsters): approximately 65% | increase in β-PP mRNA levels relative to vehicle-injected animals ([5]; single treatment on PD7, septum): 4 fold | increase in β-PP in thalamus ([5]; single treatment, FIG. 6): no increase | effect on PrP mRNA levels in hippocampus [6]: no effect | effect on PrP mRNA levels in thalamus [6]: no effect | increase in PrP mRNA in caudate-putamen relative to vehicle-injected animals [6]: 70% | increase in septal PrP mRNA levels [6]: ~9 fold | increase in septal PrP mRNA relative to controls [6]: approximately 10 fold | increase in PrP in septum (Western blot) [7]: 3.3 fold

B2: NGF denatured by reduction and carbamoylmethylation: NGF (30 μg) denatured by reduction and carbamoylmethylation, used as control (protein, UniProt P01139 122-241, looked up)
Beta-nerve growth factor: SSTHPVFHMGEFSVCDSVSVWVGDKTTATDIKGKEVTVLAEVNINNSVFRQYFFETKCRASNPVESGCRGIDSKHWNSYCTTTHTFVKALTTDEKQAAWRFIRIDTACVCVLSRKATRRG
modifications: beta-NGF reduced and carbamoylmethylated (denatured)
notes: NGF (30 μg) denatured by reduction and carbamoylmethylation, used as control
increase in septal ChAT activity relative to vehicle-injected animals [4]: No increase | increase in septal PrP mRNA levels [6]: No increase
